Consider 51 molecules from patent US20240101959A1, “USE OF IL-2R-BETA-GAMMA AGONIST PEPTIDES IN CELL MANUFACTURING” (MEDIKINE, INC., priority 2022, published 2024).

Where two headings read alike, the source gives them in different places. Non-standard residues stand in square brackets, D forms with d. No end group written: not given here. Alb = not defined here A value given as a limit tells only on which side of the number the result lay.

Assay [1] has as its target T1, hu-IL-2Rγc subunit (human), P31785.
T1 chain: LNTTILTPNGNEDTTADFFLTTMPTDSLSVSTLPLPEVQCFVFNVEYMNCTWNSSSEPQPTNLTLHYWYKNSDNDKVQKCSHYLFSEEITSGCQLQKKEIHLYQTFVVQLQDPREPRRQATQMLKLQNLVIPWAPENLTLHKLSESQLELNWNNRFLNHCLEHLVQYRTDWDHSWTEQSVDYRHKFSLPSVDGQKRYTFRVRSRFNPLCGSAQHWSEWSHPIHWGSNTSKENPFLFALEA

Assay [2] shares this target. Description: phage ELISA competition assay. (An ELISA detects its analyte on a solid surface through an enzyme-linked reagent.)
Another assay deals with T2, hu-IL-2Rγc subunit (human, UniProt P31785 23-262, limits assumed).
T2 sequence (looked up): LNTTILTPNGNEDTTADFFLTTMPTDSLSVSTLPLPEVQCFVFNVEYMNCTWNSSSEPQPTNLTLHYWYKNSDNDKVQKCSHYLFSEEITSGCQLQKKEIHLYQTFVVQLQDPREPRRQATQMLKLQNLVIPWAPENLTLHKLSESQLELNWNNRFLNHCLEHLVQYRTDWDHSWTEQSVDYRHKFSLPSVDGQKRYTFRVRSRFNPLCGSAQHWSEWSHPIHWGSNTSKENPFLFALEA

B1: SEQ ID NO 687 (peptide)
peptide: RVQVECEDWNGVELCWPVRV
modifications: not checked
The term IC50 denotes the concentration that inhibits the measured activity by half. For the molecule B1, the half-inhibitory concentration (IC50) is under 100 µM in assay [1] and under 10 µM in assay [2].

B2: SEQ ID NO 697 (peptide)
peptide: KYIVECQEWGGVELCWPEMV
modifications: not checked
For the molecule B2, the IC50 was under 100 µM in assay [1] and under 10 µM in assay [2].

B3: SEQ ID NO 665 (peptide)
peptide: ANQNTVVECQDWHGVELCWQ
modifications: not checked
On to B3, for which the results for the IC50 in assay [1] and in assay [2] were under 100 µM and under 10 µM, respectively.

B4: SEQ ID NO 709 (peptide)
peptide: SVEVVCEEWHGVELCWPVFI
modifications: not checked
Consider B4, for which the figures for the IC50 in assay [1] and in assay [2] were under 100 µM and under 10 µM, respectively.

B5: SEQ ID NO 662 (peptide)
peptide: GDRPKEVVCEDWKGVELCWI
modifications: not checked
With B5, the IC50 was under 100 µM in assay [1] and under 10 µM in assay [2].

B6: SEQ ID NO 700 (peptide)
peptide: IVCEEYNGVELCWVETSVKP
modifications: not checked
On to B6, for which the half-inhibitory concentration (IC50) was under 100 µM in assay [1] and under 10 µM in assay [2].

B7: SEQ ID NO 668 (peptide)
peptide: TWNMSELECQDWNGVEICWH
modifications: not checked
Take B7: the IC50 was under 100 µM in assay [1] and under 10 µM in assay [2].

B8: SEQ ID NO 704 (peptide)
peptide: SPSIVCEEWAGVELCWVDYS
modifications: not checked
For the molecule B8, the IC50 in assay [1] is under 100 µM; in assay [2] it was under 10 µM.

B9: SEQ ID NO 705 (peptide)
peptide: AVCQDWYGVELCWCMQDILD
modifications: not checked
Consider B9, for which the IC50 was under 100 µM in assay [1] and under 10 µM in assay [2].

B10: SEQ ID NO 655 (peptide)
peptide: GQGREVVVCHDWYGVELCWQ
modifications: not checked
As to B10, the figures for the IC50 in assay [1] and in assay [2] were under 100 µM and under 10 µM, respectively.

B11: SEQ ID NO 660 (peptide)
peptide: IVCEDWRGVELCWI
modifications: not checked
In the case of B11, the IC50 in assay [1] was under 100 µM; in assay [2], under 10 µM.

B12: SEQ ID NO 682 (peptide)
peptide: GYGVLCQEWQGVELCWPVQREAGV
modifications: not checked
As to B12, the IC50 is under 100 µM in assay [1] and under 10 µM in assay [2].

B13: SEQ ID NO 691 (peptide)
peptide: RLGVECQEWEGVDLCWISAF
modifications: not checked
As to B13, the IC50 in assay [1] was under 100 µM; in assay [2], under 10 µM.

B14: SEQ ID NO 658 (peptide)
peptide: TLGRTVVECQDWGGVELCWQ
modifications: not checked
With B14, the IC50 was under 100 µM in assay [1] and under 10 µM in assay [2].

B15: SEQ ID NO 683 (peptide)
peptide: PYGVVCQDWAGVELCWVENR
modifications: not checked
For the molecule B15, the results for the IC50 in assay [1] and in assay [2] were under 100 µM and under 10 µM, respectively.

B16: SEQ ID NO 657 (peptide)
peptide: DVVCQNWDGVDLCWH
modifications: not checked
For B16, the IC50 in assay [1] was under 100 µM; in assay [2], under 10 µM.

B17: SEQ ID NO 671 (peptide)
peptide: LNRSVWIECEEYEGVELCWL
modifications: not checked
B17: the IC50 in assay [1] was under 100 µM; in assay [2] it was under 10 µM.

B18: SEQ ID NO 744 (peptide)
peptide: GGVVCQDWEGV[Alb]LCWQGG
modifications: not fully specified; printed as G G V V C Q D W E G V Alb L C W Q G G; cysteine pairing not given here; reading uncertain
In the assay with hu-IL-2Rγc subunit, B18 gave an IC50 of under 100 µM.

B19: SEQ ID NO 677 (peptide)
peptide: KITVECQDWDGVELCWPTWI
modifications: not checked
Consider B19, for which the figures for the IC50 in assay [1] and in assay [2] were under 100 µM and under 10 µM, respectively.

B20: SEQ ID NO 710 (peptide)
peptide: RWAVSCQDWQGIELCWPEWD
modifications: not checked
Turning to B20, the results for the IC50 in assay [1] and in assay [2] were under 100 µM and under 10 µM, respectively.

B21: SEQ ID NO 737 (peptide)
peptide: GGDCSMWEGVELCWGG
As to B21, the IC50 with hu-IL-2Rγc subunit is under 100 µM.

B22: SEQ ID NO 654 (peptide)
peptide: SAGRQEVVCQDWNGVELCWI
modifications: not checked
Turning to B22, the IC50 was under 100 µM in assay [1] and under 10 µM in assay [2].

B23: SEQ ID NO 706 (peptide)
peptide: VECEEWGGVELCWLADEVMW
modifications: not checked
Consider B23, for which the figures for the IC50 in assay [1] and in assay [2] were under 100 µM and under 10 µM, respectively.

B24: SEQ ID NO 695 (peptide)
peptide: PVEVRCQEWEGVELCWVVGI
modifications: not checked
Regarding B24, the IC50 in assay [1] is under 100 µM; in assay [2], under 10 µM.

B25: SEQ ID NO 739 (peptide)
peptide: GGVGIECEEWAGVELCWLGG
B25: the IC50 with hu-IL-2Rγc subunit was under 100 µM.

B26: SEQ ID NO 701 (peptide)
peptide: EQQVVCQEWNGVELCWIEAG
modifications: not checked
On to B26, for which the figures for the IC50 in assay [1] and in assay [2] were under 100 µM and under 10 µM, respectively.

B27: SEQ ID NO 678 (peptide)
peptide: RPQIECQEWQGVELCWTREE
modifications: not checked
Take B27: the values for the IC50 in assay [1] and in assay [2] were under 100 µM and under 10 µM, respectively.

B28: SEQ ID NO 694 (peptide)
peptide: TDEVSCQEWEGVELCWIERQ
modifications: not checked
As to B28, the IC50 in assay [1] is under 100 µM; in assay [2], under 10 µM.

B29: SEQ ID NO 656 (peptide)
peptide: DWRRSVVECQDWYGVELCWQ
modifications: not checked
For B29, the IC50 is under 100 µM in assay [1] and under 10 µM in assay [2].

B30: SEQ ID NO 740 (peptide)
peptide: GGTWNMSELECQDWNGVEICWHGG
In turn, B30 registered an IC50 in the assay with hu-IL-2Rγc subunit of under 100 µM.

B31: SEQ ID NO 676 (peptide)
peptide: KSQVECQDWEGVELCWVVSE
modifications: not checked
For the molecule B31, the IC50 is under 100 µM in assay [1] and under 10 µM in assay [2].

B32: SEQ ID NO 685 (peptide)
peptide: INCQTWNGVELCWVDEGLYQ
modifications: not checked
As for B32, the IC50 in assay [1] was under 100 µM; in assay [2], under 10 µM.

B33: SEQ ID NO 663 (peptide)
peptide: ERPRSFIECQEWEGVELCWL
modifications: not checked
For the molecule B33, the IC50 was under 100 µM in assay [1] and under 10 µM in assay [2].

B34: SEQ ID NO 738 (peptide)
peptide: GGVMCERWQGVELCWLGG
For the molecule B34, the IC50 with hu-IL-2Rγc subunit is under 100 µM.

B35: SEQ ID NO 680 (peptide)
peptide: IMCQEWDGVELCWLERDKAN
modifications: not checked
Regarding B35, the IC50 in assay [1] is under 100 µM; in assay [2], under 10 µM.

B36: SEQ ID NO 702 (peptide)
peptide: QLGVECQNWRGVELCWVSEI
modifications: not checked
Turning to B36, the IC50 is under 100 µM in assay [1] and under 10 µM in assay [2].

B37: SEQ ID NO 699 (peptide)
peptide: VVCQEWEGVELCWQTGPGAHA
modifications: not checked
Consider B37, for which the results for the IC50 in assay [1] and in assay [2] were under 100 µM and under 10 µM, respectively.

B38: SEQ ID NO 713 (peptide)
peptide: RTEVECEDWEGVELCWL
modifications: not checked
As for B38, the IC50 in assay [1] was under 100 µM; in assay [2] it was under 10 µM.

B39: SEQ ID NO 742 (peptide)
peptide: GGRTGVECQDWHGVELCWPVWEGG
Regarding B39, the IC50 with hu-IL-2Rγc subunit is under 100 µM.

B40: SEQ ID NO 679 (peptide)
peptide: VSCQEWDGVELCWVDGDLAA
modifications: not checked
As to B40, the results for the IC50 in assay [1] and in assay [2] were under 100 µM and under 10 µM, respectively.

B41: SEQ ID NO 681 (peptide)
peptide: GLEIACEDWYGVELCWLRRA
modifications: not checked
Consider B41, for which the results for the IC50 in assay [1] and in assay [2] were under 100 µM and under 10 µM, respectively.

B42: SEQ ID NO 688 (peptide)
peptide: DRQVVCEEWDGVELCWIEES
modifications: not checked
Regarding B42, the IC50 in assay [1] is under 100 µM; in assay [2] it was under 10 µM.

B43: SEQ ID NO 669 (peptide)
peptide: GNDDSYIVCEEWKGVELCWI
modifications: not checked
B43: the IC50 in assay [1] was under 100 µM; in assay [2] it was under 10 µM.

B44: SEQ ID NO 743 (peptide)
peptide: GGVVCQDWEGVXLCWQGG
modifications: not fully specified; Abu at residue 12, as printed in the table
With B44, the IC50 in the assay with hu-IL-2Rγc subunit is under 100 µM.

B45: SEQ ID NO 707 (peptide)
peptide: HSTVICQDWDGVELCWIEND
modifications: not checked
B45: the IC50 was under 100 µM in assay [1] and under 10 µM in assay [2].

B46: SEQ ID NO 703 (peptide)
peptide: TAEVVCQEWDGVELCWIEVL
modifications: not checked
For the molecule B46, the IC50 in assay [1] was under 100 µM; in assay [2], under 10 µM.

B47: SEQ ID NO 746 (peptide)
peptide: GGVVCQDWEGVSLCWQGG
In turn, B47 registered an IC50 in the assay with hu-IL-2Rγc subunit of under 100 µM.

B48: SEQ ID NO 747 (peptide)
peptide: GGVVCQDWEGVGLCWQGG
B48 yielded an IC50 with hu-IL-2Rγc subunit of under 100 µM.

B49: SEQ ID NO 690 (peptide)
peptide: RPEVVCQEWEGVELCWISPL
modifications: not checked
Consider B49, for which the IC50 in assay [1] was under 100 µM; in assay [2], under 10 µM.

B50: SEQ ID NO 696 (peptide)
peptide: GPEVVCEEFNRVELCWVEYN
modifications: not checked
Consider B50, for which the IC50 in assay [1] is under 100 µM; in assay [2], under 10 µM.

B51: SEQ ID NO 741 (peptide)
peptide: GGRTEVECEDWEGVELCWLGG
Molecule B51 returned an IC50 with hu-IL-2Rγc subunit of under 100 µM.
